Assay results: patent US20170015742A1 (published 2017)

molecular target: recombinant human PDGF-BB (human, UniProt P01127 82-190); assay: cell-based or functional assay
Sequence (P01127 82-190 limits assumed): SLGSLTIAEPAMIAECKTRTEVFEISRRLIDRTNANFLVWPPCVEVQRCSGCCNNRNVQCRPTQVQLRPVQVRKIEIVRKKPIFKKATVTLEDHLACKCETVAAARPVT

| Binder | NIH-3T3 hPDGF-BB Potency IC50 [nM] |
| --- | --- |
| CODV011 cross-over DVD-Ig (PR-1575521) (bispecific antibody, human IgG1, kappa, L234A L235A) heavy: EVQLVQSGSELKKPGASVKVSCKASGYTFTNYGMYWVRQAPGQGLEWMGWINTETGKPTYADDFKGRFVFSLDTSVSTAYLQISSLKAEDTAVYYCARTNYYYRSYIFYFDYWGQGTMVTVSSGGGGSGGGGSEFVLTQSPGTLSLSPGERATLSCERSSGDIGDSYVSWYQQKPGQAPRLVIYADDQRPSGIPDRFSGSGSGTDFTLTISRLEPEDFAVYYCQSYDINIDIVFGGGTKVEIKGGGSGASTKGPSVFPLAPSSKSTSGGTAALGCLVKDYFPEPVTVSWNSGALTSGVHTFPAVLQSSGLYSLSSVVTVPSSSLGTQTYICNVNHKPSNTKVDKKVEPKSCDKTHTCPPCPAPEAAGGPSVFLFPPKPKDTLMISRTPEVTCVVVDVSHEDPEVKFNWYVDGVEVHNAKTKPREEQYNSTYRVVSVLTVLHQDWLNGKEYKCKVSNKALPAPIEKTISKAKGQPREPQVYTLPPSREEMTKNQVSLTCLVKGFYPSDIAVEWESNGQPENNYKTTPPVLDSDGSFFLYSKLTVDKSRWQQGNVFSCSVMHEALHNAYTQKSLSLSPGK light: EVTLRESGPALVKPTQTLTLTCTFSGFSLSTYGMGVGWIRQPPGKALEWLANIWWDDDKYYNPSLKNRLTISKDTSKNQVVLTMTNMDPVDTATYYCARIESIGTTYSFDYWGQGTMVTVSSGGGGSGGGGSDTVLTQSPATLSLSPGERATLSCRASESVSTHMHWYQQKPGQAPRLLIYGASNLESGVPARFSGSGSGTDFTLTISSLEPEDFAVYFCQQSWNDPFTFGQGTKLEIKGGGSGRTVAAPSVFIFPPSDEQLKSGTASVVCLLNNFYPREAKVQWKVDNALQSGNSQESVTEQDSKDSTYSLSSTLTLSKADYEKHKVYACEVTHQGLSSPVTKSFNRGEC | 0.043 |
| 9E8.4-SL-4G8.3 DVD-Ig (PR-1563998) (bispecific antibody, human IgG1, kappa, L234A L235A) heavy: not shown light: EFVLTQSPGTLSLSPGERATLSCERSSGDIGDSYVSWYQQKPGQAPRLVIYADDQRPSGIPDRFSGSGSGTDFTLTISRLEPEDFAVYYCQSYDINIDIVFGGGTKVEIKGTVAAPSVFIFPPDTVLTQSPATLSLSPGERATLSCRASESVSTHMHWYQQKPGQAPRLLIYGASNLESGVPARFSGSGSGTDFTLTISSLEPEDFAVYFCQQSWNDPFTFGQGTKLEIKRTVAAPSVFIFPPSDEQLKSGTASVVCLLNNFYPREAKVQWKVDNALQSGNSQESVTEQDSKDSTYSLSSTLTLSKADYEKHKVYACEVTHQGLSSPVTKSFNRGEC | 0.091 |
| CODV010 cross-over DVD-Ig (PR-1571823) (bispecific antibody, human IgG1, kappa, L234A L235A) heavy: EVTLRESGPALVKPTQTLTLTCTFSGFSLSTYGMGVGWIRQPPGKALEWLANIWWDDDKYYNPSLKNRLTISKDTSKNQVVLTMTNMDPVDTATYYCARIESIGTTYSFDYWGQGTMVTVSSGEVQLVQSGSELKKPGASVKVSCKASGYTFTNYGMYWVRQAPGQGLEWMGWINTETGKPTYADDFKGRFVFSLDTSVSTAYLQISSLKAEDTAVYYCARTNYYYRSYIFYFDYWGQGTMVTVSSGGASTKGPSVFPLAPSSKSTSGGTAALGCLVKDYFPEPVTVSWNSGALTSGVHTFPAVLQSSGLYSLSSVVTVPSSSLGTQTYICNVNHKPSNTKVDKKVEPKSCDKTHTCPPCPAPEAAGGPSVFLFPPKPKDTLMISRTPEVTCVVVDVSHEDPEVKFNWYVDGVEVHNAKTKPREEQYNSTYRVVSVLTVLHQDWLNGKEYKCKVSNKALPAPIEKTISKAKGQPREPQVYTLPPSREEMTKNQVSLTCLVKGFYPSDIAVEWESNGQPENNYKTTPPVLDSDGSFFLYSKLTVDKSRWQQGNVFSCSVMHEALHNAYTQKSLSLSPGK light: DTVLTQSPATLSLSPGERATLSCRASESVSTHMHWYQQKPGQAPRLLIYGASNLESGVPARFSGSGSGTDFTLTISSLEPEDFAVYFCQQSWNDPFTFGQGTKLEIKGGGSGGGEFVLTQSPGTLSLSPGERATLSCERSSGDIGDSYVSWYQQKPGQAPRLVIYADDQRPSGIPDRFSGSGSGTDFTLTISRLEPEDFAVYYCQSYDINIDIVFGGGTKVEIKGGGSGRTVAAPSVFIFPPSDEQLKSGTASVVCLLNNFYPREAKVQWKVDNALQSGNSQESVTEQDSKDSTYSLSSTLTLSKADYEKHKVYACEVTHQGLSSPVTKSFNRGEC | 2.14 |
| 9E8.4-SS-4G8.3 DVD-Ig (PR-1563990) (bispecific antibody, human IgG1, kappa, L234A L235A) heavy: not shown light: EFVLTQSPGTLSLSPGERATLSCERSSGDIGDSYVSWYQQKPGQAPRLVIYADDQRPSGIPDRFSGSGSGTDFTLTISRLEPEDFAVYYCQSYDINIDIVFGGGTKVEIKGTVAAPDTVLTQSPATLSLSPGERATLSCRASESVSTHMHWYQQKPGQAPRLLIYGASNLESGVPARFSGSGSGTDFTLTISSLEPEDFAVYFCQQSWNDPFTFGQGTKLEIKRTVAAPSVFIFPPSDEQLKSGTASVVCLLNNFYPREAKVQWKVDNALQSGNSQESVTEQDSKDSTYSLSSTLTLSKADYEKHKVYACEVTHQGLSSPVTKSFNRGEC | 0.094 |
| 9E8.4-LS-4G8.3 DVD-Ig (PR-1564009) (bispecific antibody, human IgG1, kappa, L234A L235A) heavy: not shown light: EFVLTQSPGTLSLSPGERATLSCERSSGDIGDSYVSWYQQKPGQAPRLVIYADDQRPSGIPDRFSGSGSGTDFTLTISRLEPEDFAVYYCQSYDINIDIVFGGGTKVEIKGTVAAPDTVLTQSPATLSLSPGERATLSCRASESVSTHMHWYQQKPGQAPRLLIYGASNLESGVPARFSGSGSGTDFTLTISSLEPEDFAVYFCQQSWNDPFTFGQGTKLEIKRTVAAPSVFIFPPSDEQLKSGTASVVCLLNNFYPREAKVQWKVDNALQSGNSQESVTEQDSKDSTYSLSSTLTLSKADYEKHKVYACEVTHQGLSSPVTKSFNRGEC | 0.104 |
| 4G8.3-GS-9E8.4E DVD-Ig (PR-1575832) (bispecific antibody, human IgG1, kappa, L234A L235A) heavy: EVQLVQSGSELKKPGASVKVSCKASGYTFTNYGMYWVRQAPGQGLEWMGWINTETGKPTYADDFKGRFVFSLDTSVSTAYLQISSLKAEDTAVYYCARTNYYYRSYIFYFDYWGQGTMVTVSSGGGGSGGGGSEVTLRESGPALVKPTQTLTLTCTFSGFSLSTYGMGVGWIRQPPGKALEWLANIWWDDDKYYNPSLKNRLTISKDTSKNQVVLTMTNMDPVDTATYYCARIESIGTTYSFDYWGQGTMVTVSSASTKGPSVFPLAPSSKSTSGGTAALGCLVKDYFPEPVTVSWNSGALTSGVHTFPAVLQSSGLYSLSSVVTVPSSSLGTQTYICNVNHKPSNTKVDKKVEPKSCDKTHTCPPCPAPEAAGGPSVFLFPPKPKDTLMISRTPEVTCVVVDVSHEDPEVKFNWYVDGVEVHNAKTKPREEQYNSTYRVVSVLTVLHQDWLNGKEYKCKVSNKALPAPIEKTISKAKGQPREPQVYTLPPSREEMTKNQVSLTCLVKGFYPSDIAVEWESNGQPENNYKTTPPVLDSDGSFFLYSKLTVDKSRWQQGNVFSCSVMHEALHNAYTQKSLSLSPGK light: DTVLTQSPATLSLSPGERATLSCRASESVSTHMHWYQQKPGQAPRLLIYGASNLESGVPARFSGSGSGTDFTLTISSLEPEDFAVYFCQQSWNDPFTFGQGTKLEIKRGGSGGGGSGEFVLTQSPGTLSLSPGERATLSCERSSGDIGESYVSWYQQKPGQAPRLVIYADDQRPSGIPDRFSGSGSGTDFTLTISRLEPEDFAVYYCQSYDINIDIVFGGGTKVEIKRTVAAPSVFIFPPSDEQLKSGTASVVCLLNNFYPREAKVQWKVDNALQSGNSQESVTEQDSKDSTYSLSSTLTLSKADYEKHKVYACEVTHQGLSSPVTKSFNRGEC | > 5 |
| 4G8.3-SL-9E8.4E DVD-Ig (PR-1575834) (bispecific antibody, human IgG1, kappa, L234A L235A) heavy: EVQLVQSGSELKKPGASVKVSCKASGYTFTNYGMYWVRQAPGQGLEWMGWINTETGKPTYADDFKGRFVFSLDTSVSTAYLQISSLKAEDTAVYYCARTNYYYRSYIFYFDYWGQGTMVTVSSASTKGPEVTLRESGPALVKPTQTLTLTCTFSGFSLSTYGMGVGWIRQPPGKALEWLANIWWDDDKYYNPSLKNRLTISKDTSKNQVVLTMTNMDPVDTATYYCARIESIGTTYSFDYWGQGTMVTVSSASTKGPSVFPLAPSSKSTSGGTAALGCLVKDYFPEPVTVSWNSGALTSGVHTFPAVLQSSGLYSLSSVVTVPSSSLGTQTYICNVNHKPSNTKVDKKVEPKSCDKTHTCPPCPAPEAAGGPSVFLFPPKPKDTLMISRTPEVTCVVVDVSHEDPEVKFNWYVDGVEVHNAKTKPREEQYNSTYRVVSVLTVLHQDWLNGKEYKCKVSNKALPAPIEKTISKAKGQPREPQVYTLPPSREEMTKNQVSLTCLVKGFYPSDIAVEWESNGQPENNYKTTPPVLDSDGSFFLYSKLTVDKSRWQQGNVFSCSVMHEALHNAYTQKSLSLSPGK light: DTVLTQSPATLSLSPGERATLSCRASESVSTHMHWYQQKPGQAPRLLIYGASNLESGVPARFSGSGSGTDFTLTISSLEPEDFAVYFCQQSWNDPFTFGQGTKLEIKRTVAAPSVFIFPPEFVLTQSPGTLSLSPGERATLSCERSSGDIGESYVSWYQQKPGQAPRLVIYADDQRPSGIPDRFSGSGSGTDFTLTISRLEPEDFAVYYCQSYDINIDIVFGGGTKVEIKRTVAAPSVFIFPPSDEQLKSGTASVVCLLNNFYPREAKVQWKVDNALQSGNSQESVTEQDSKDSTYSLSSTLTLSKADYEKHKVYACEVTHQGLSSPVTKSFNRGEC | 0.572 |
| CODV009 cross-over DVD-Ig (PR-1571821) (bispecific antibody, human IgG1, kappa, L234A L235A) heavy: EVQLVQSGSELKKPGASVKVSCKASGYTFTNYGMYWVRQAPGQGLEWMGWINTETGKPTYADDFKGRFVFSLDTSVSTAYLQISSLKAEDTAVYYCARTNYYYRSYIFYFDYWGQGTMVTVSSGEVTLRESGPALVKPTQTLTLTCTFSGFSLSTYGMGVGWIRQPPGKALEWLANIWWDDDKYYNPSLKNRLTISKDTSKNQVVLTMTNMDPVDTATYYCARIESIGTTYSFDYWGQGTMVTVSSGGASTKGPSVFPLAPSSKSTSGGTAALGCLVKDYFPEPVTVSWNSGALTSGVHTFPAVLQSSGLYSLSSVVTVPSSSLGTQTYICNVNHKPSNTKVDKKVEPKSCDKTHTCPPCPAPEAAGGPSVFLFPPKPKDTLMISRTPEVTCVVVDVSHEDPEVKFNWYVDGVEVHNAKTKPREEQYNSTYRVVSVLTVLHQDWLNGKEYKCKVSNKALPAPIEKTISKAKGQPREPQVYTLPPSREEMTKNQVSLTCLVKGFYPSDIAVEWESNGQPENNYKTTPPVLDSDGSFFLYSKLTVDKSRWQQGNVFSCSVMHEALHNAYTQKSLSLSPGK light: EFVLTQSPGTLSLSPGERATLSCERSSGDIGDSYVSWYQQKPGQAPRLVIYADDQRPSGIPDRFSGSGSGTDFTLTISRLEPEDFAVYYCQSYDINIDIVFGGGTKVEIKGGGSGGGDTVLTQSPATLSLSPGERATLSCRASESVSTHMHWYQQKPGQAPRLLIYGASNLESGVPARFSGSGSGTDFTLTISSLEPEDFAVYFCQQSWNDPFTFGQGTKLEIKGGGSGRTVAAPSVFIFPPSDEQLKSGTASVVCLLNNFYPREAKVQWKVDNALQSGNSQESVTEQDSKDSTYSLSSTLTLSKADYEKHKVYACEVTHQGLSSPVTKSFNRGEC | > 5 |
| 4G8.3-SS-9E8.4 DVD-Ig (PR-1564011) (bispecific antibody, human IgG1, kappa, L234A L235A) heavy: not shown light: DTVLTQSPATLSLSPGERATLSCRASESVSTHMHWYQQKPGQAPRLLIYGASNLESGVPARFSGSGSGTDFTLTISSLEPEDFAVYFCQQSWNDPFTFGQGTKLEIKRTVAAPEFVLTQSPGTLSLSPGERATLSCERSSGDIGDSYVSWYQQKPGQAPRLVIYADDQRPSGIPDRFSGSGSGTDFTLTISRLEPEDFAVYYCQSYDINIDIVFGGGTKVEIKGTVAAPSVFIFPPSDEQLKSGTASVVCLLNNFYPREAKVQWKVDNALQSGNSQESVTEQDSKDSTYSLSSTLTLSKADYEKHKVYACEVTHQGLSSPVTKSFNRGEC | 5.51 |
